Legend:
HLA-A*01:01 = experiment: IEDB peptide-MHC binding, purified MHC/direct/fluorescence; filed as Kd, often an IC50 or EC50 that approximates it; ≥ and ≤ were set here for values at or beyond the usual limits of such assays
HLA-A*11:01 = experiment: as above
HLA-A*24:03 = experiment: as above; conditions: source organism: Camelpox virus M-96
HLA-A*26:01 = experiment: as above
HLA-A*26:03 = experiment: as above; conditions: source organism: Variola virus
HLA-A*31:01 = experiment: as above
HLA-A*69:01 = experiment: as above
HLA-B*08:02 = experiment: as above; conditions: source organism: Variola virus
HLA-B*15:01 = experiment: as above
HLA-B*58:01 = experiment: as above
HLA-A*02:01 [1] = experiment: IEDB peptide-MHC binding, purified MHC/competitive/fluorescence; filed as Kd, often an IC50 or EC50 that approximates it; ≥ and ≤ were set here for values at or beyond the usual limits of such assays; conditions: source organism: Variola virus
HLA-A*26:02 = experiment: as above; conditions: source organism: Variola virus
HLA-A*68:02 = experiment: as above; conditions: source organism: Variola virus
HLA-B*07:02 [2] = experiment: as above; conditions: source organism: Variola virus
HLA-B*08:01 [3] = experiment: as above; conditions: source organism: Variola virus
HLA-B*15:17 = experiment: as above; conditions: source organism: Variola virus
HLA-B*18:01 = experiment: as above; conditions: source organism: Variola virus
HLA-B*57:01 = experiment: as above; conditions: source organism: Variola virus
HLA-C*06:02 = experiment: IEDB peptide-MHC binding, purified MHC/direct/fluorescence; filed as Kd, often an IC50 or EC50 that approximates it; ≥ and ≤ were set here for values at or beyond the usual limits of such assays; conditions: source organism: Vibrio vulnificus CMCP6
HLA-C*07:02 = experiment: as above; conditions: source organism: Vibrio vulnificus CMCP6
HLA-A*02:01 [4] = experiment: as above; conditions: source organism: Vibrio cholerae
HLA-A*03:01 = experiment: as above; conditions: source organism: Vibrio cholerae
HLA-A*30:01 = experiment: as above; conditions: source organism: Vibrio cholerae
HLA-B*07:02 [5] = experiment: as above; conditions: source organism: Vibrio cholerae
HLA-B*08:01 [6] = experiment: as above; conditions: source organism: Vibrio cholerae
HLA-B*27:05 = experiment: as above; conditions: source organism: Vibrio cholerae
HLA-B*40:01 = experiment: as above; conditions: source organism: Vibrio cholerae
HLA-B*44:02 = experiment: as above; conditions: source organism: Vibrio cholerae
HLA-B*73:01 = experiment: IEDB peptide-MHC binding, purified MHC/competitive/fluorescence; filed as Kd, often an IC50 or EC50 that approximates it; ≥ and ≤ were set here for values at or beyond the usual limits of such assays; conditions: source organism: Vibrio cholerae
[7] = source organism: Camelpox virus M-96
[8] = source organism: Vibrio cholerae

With EYKKFIATF the Kd (HLA-A*01:01; [7]) was ≥ 20 µM, the Kd (HLA-A*11:01; [7]) was ≥ 20 µM and the Kd (HLA-A*24:03) was 0.032 µM. The Kd (HLA-A*26:01; source organism: Variola virus) was ≥ 20 µM, the Kd (HLA-A*26:03) was ≥ 20 µM and the Kd (HLA-A*31:01; [7]) was ≥ 20 µM. For the same sequence, the Kd (HLA-A*69:01; [7]) was ≥ 20 µM, the Kd (HLA-B*08:02) was ≥ 20 µM and the Kd (HLA-B*15:01; [7]) was ≥ 20 µM. The Kd (HLA-B*58:01; source organism: Variola virus) was 0.256 µM, the Kd (HLA-A*02:01 [1]) was ≥ 20 µM and the Kd (HLA-A*26:02) was 0.818 µM. The Kd (HLA-A*68:02) was ≥ 20 µM, the Kd (HLA-B*07:02 [2]) was 3 µM and the Kd (HLA-B*08:01 [3]) was ≥ 20 µM. For the same sequence, the Kd (HLA-B*15:17) was 0.865 µM, the Kd (HLA-B*18:01) was 0.0583 µM and the Kd (HLA-B*57:01) was 4.85 µM.
With FMIVNNFPV the Kd (HLA-C*06:02) was 0.633 µM and the Kd (HLA-C*07:02) was 1.01 µM.
GKFFAQAFL was tested, and the Kd (HLA-A*01:01; [8]) was ≥ 20 µM, the Kd (HLA-A*02:01 [4]) was ≥ 20 µM and the Kd (HLA-A*03:01) was ≥ 20 µM. For the same sequence, the Kd (HLA-A*11:01; [8]) was ≥ 20 µM, the Kd (HLA-A*26:01; [8]) was ≥ 20 µM and the Kd (HLA-A*30:01) was 0.753 µM. The Kd (HLA-A*31:01; [8]) was ≥ 20 µM, the Kd (HLA-A*69:01; [8]) was ≥ 20 µM and the Kd (HLA-B*07:02 [5]) was ≥ 20 µM. The Kd (HLA-B*08:01 [6]) was ≥ 20 µM, the Kd (HLA-B*15:01; [8]) was ≥ 20 µM and the Kd (HLA-B*27:05) was 1.29 µM. The Kd (HLA-B*40:01) was ≥ 20 µM, the Kd (HLA-B*44:02) was ≥ 20 µM and the Kd (HLA-B*58:01; [8]) was ≥ 20 µM. The Kd (HLA-B*73:01) was ≥ 20 µM.

From the Immune Epitope Database (IEDB)
